This is an account of results in patent publication US20250320281A1.

As a reminder, the IC50 is the concentration that inhibits the measured activity by half. Higher therefore signals weaker potency in that assay.

Common to all, as to experiment: cell-based or functional assay
Assay [1] concerns the target HIV-1 Env of isolate JR-CSF (pseudovirus) (HIV-1) (UniProt P20871).
In assay [2] the target is HIV-1 Env of isolate 92TH021 (pseudovirus) (HIV-1).
Assay [3] concerns the target HIV-1 Env of isolate MGRM-C-026 (pseudovirus) (HIV-1).
Assay [4] has as its target HIV-1 Env of isolate MGRM-C-027 (HIV-1).
In assay [5] the target is HIV-1 Env of isolate MGRM-C-017 (HIV-1).
The target of assay [6] is HIV-1 Env of isolate MGRM-C-024 (HIV-1).
The target of assay [7] is HIV-1 Env of isolate MGRM-C-022 (HIV-1).
Assay [8] concerns the target HIV-1 Env of isolate MGRM-C-014 (HIV-1).
The target in assay [9] is HIV-1 Env of isolate MGRM-C-020 (HIV-1).
Assay [10] concerns the target HIV-1 Env of isolate MGRM-C-015 (HIV-1).
The target in assay [11] is HIV-1 Env of isolate MGRM-C-026 (HIV-1).
Assay [12] has as its target HIV-1 Env of isolate MGRM-C-023 (HIV-1).
Assay [13] addresses HIV-1 Env of isolate MGRM-C-028 (HIV-1).
The target in assay [14] is HIV-1 Env of isolate MGRM-C-019 (HIV-1).
Assay [15] has as its target HIV-1 Env of isolate MGRM-C-025 (HIV-1).
Assay [16] deals with HIV-1 Env of isolate MG RM-D-018 (HIV-1).
Assay [17] addresses HIV-1 Env of isolate MG RM-D-024 (HIV-1).
In assay [18] the target is HIV-1 Env of pseudovirus MGRM-AG-002 (subtype AG) (HIV-1).
In assay [19] the target is HIV-1 Env of isolate MGRM-F1-015 (HIV-1).
The target of assay [20] is HIV-1 Env of pseudovirus MGRM-AG-013 (subtype AG) (HIV-1).
For assay [21], the target named is HIV-1 Env of isolate MGRM-F1-023 (HIV-1).
In assay [22] the target is HIV-1 Env of pseudovirus MGRM-AG-006 (subtype AG) (HIV-1).
In assay [23] the target is HIV-1 Env of isolate MG RM-D-028 (HIV-1).
The target in assay [24] is HIV-1 Env of isolate MGRM-F1-008 (HIV-1).
The target in assay [25] is HIV-1 Env of isolate MG RM-D-019 (HIV-1).
Assay [26] concerns the target HIV-1 Env of isolate MG RM-D-022 (HIV-1).
Assay [27] concerns the target HIV-1 Env of isolate MGRM-F1-021 (HIV-1).
Assay [28] addresses HIV-1 Env of isolate MGRM-F1-004 (HIV-1).
The target of assay [29] is HIV-1 Env of pseudovirus MGRM-AG-012 (subtype AG) (HIV-1).
In assay [30] the target is HIV-1 Env of isolate MGRM-F1-014 (HIV-1).
Assay [31] deals with HIV-1 Env of isolate MG RM-D-013 (HIV-1).
The target in assay [32] is HIV-1 Env of pseudovirus MGRM-AE-008 (subtype AE) (HIV-1).
The target of assay [33] is HIV-1 Env of pseudovirus MGRM-AG-009 (subtype AG) (HIV-1).
For assay [34], the target named is HIV-1 Env of isolate MG RM-D-020 (HIV-1).
Assay [35] has as its target HIV-1 Env of isolate MGRM-F1-012 (HIV-1).
Assay [36] deals with HIV-1 Env of isolate MG RM-D-016 (HIV-1).
The target in assay [37] is HIV-1 Env of isolate MG RM-D-011 (HIV-1).
Assay [38] addresses HIV-1 Env of pseudovirus MGRM-AG-008 (subtype AG) (HIV-1).
Assay [39] concerns the target HIV-1 Env of pseudovirus MGRM-AG-003 (subtype AG) (HIV-1).
In assay [40] the target is HIV-1 Env of isolate MGRM-F1-020 (HIV-1).
The target of assay [41] is HIV-1 Env of pseudovirus MGRM-AG-005 (subtype AG) (HIV-1).
Assay [42] has as its target HIV-1 Env of pseudovirus MGRM-AG-001 (subtype AG) (HIV-1).
Assay [43] concerns the target HIV-1 Env of isolate MG RM-D-029 (HIV-1).
In assay [44] the target is HIV-1 Env of isolate MGRM-F1-006 (HIV-1).
The target in assay [45] is HIV-1 Env of isolate MG RM-D-014 (HIV-1).
Assay [46] concerns the target HIV-1 Env of pseudovirus MGRM-AE-007 (subtype AE) (HIV-1).
The target in assay [47] is HIV-1 Env of isolate MG RM-D-012 (HIV-1).
Assay [48] has as its target HIV-1 Env of isolate MGRM-F1-010 (HIV-1).
The target of assay [49] is HIV-1 Env of isolate MG RM-D-026 (HIV-1).
For assay [50], the target named is HIV-1 Env of isolate MGRM-F1-013 (HIV-1).
Assay [51] addresses HIV-1 Env of pseudovirus MGRM-AG-011 (subtype AG) (HIV-1).
Assay [52] has as its target HIV-1 Env of isolate MG RM-D-021 (HIV-1).
Assay [53] concerns the target HIV-1 Env of isolate MGRM-F1-022 (HIV-1).
Assay [54] has as its target HIV-1 Env of isolate MGRM-F1-017 (HIV-1).
Assay [55] deals with HIV-1 Env of isolate MGRM-F1-016 (HIV-1).
Assay [56] addresses HIV-1 Env of isolate MGRM-F1-018 (HIV-1).

Chain of PGT-142 (antibody) (VH): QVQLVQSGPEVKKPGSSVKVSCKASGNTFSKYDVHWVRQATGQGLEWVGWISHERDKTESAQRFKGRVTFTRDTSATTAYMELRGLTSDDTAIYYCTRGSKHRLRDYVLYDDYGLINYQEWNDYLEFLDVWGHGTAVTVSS
Chain of PGT-142 (antibody) (VL): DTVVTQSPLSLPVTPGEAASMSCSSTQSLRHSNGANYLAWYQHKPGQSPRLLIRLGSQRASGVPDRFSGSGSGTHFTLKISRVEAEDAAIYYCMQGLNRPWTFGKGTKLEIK
Chain of PGT-144 (antibody) (VH): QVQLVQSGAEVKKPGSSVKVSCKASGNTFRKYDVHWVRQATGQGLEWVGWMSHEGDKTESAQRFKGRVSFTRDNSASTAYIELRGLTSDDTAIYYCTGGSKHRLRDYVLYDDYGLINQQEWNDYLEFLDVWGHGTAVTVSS
Chain of PGT-144 (antibody) (VL): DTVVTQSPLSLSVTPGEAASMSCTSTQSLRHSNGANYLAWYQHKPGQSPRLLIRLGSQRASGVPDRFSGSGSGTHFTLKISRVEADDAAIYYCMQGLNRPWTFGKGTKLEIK
Chain of PGT-145 (antibody) (VH): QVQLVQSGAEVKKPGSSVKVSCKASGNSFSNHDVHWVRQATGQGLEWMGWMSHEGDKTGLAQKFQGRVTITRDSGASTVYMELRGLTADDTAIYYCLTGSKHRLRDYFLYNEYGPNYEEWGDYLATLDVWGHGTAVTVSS
Chain of PGT-145 (antibody) (VL): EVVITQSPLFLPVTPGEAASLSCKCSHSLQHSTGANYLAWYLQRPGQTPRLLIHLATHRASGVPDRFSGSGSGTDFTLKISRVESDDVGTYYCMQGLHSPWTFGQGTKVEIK
Chain of PGT-143 (antibody) (VH): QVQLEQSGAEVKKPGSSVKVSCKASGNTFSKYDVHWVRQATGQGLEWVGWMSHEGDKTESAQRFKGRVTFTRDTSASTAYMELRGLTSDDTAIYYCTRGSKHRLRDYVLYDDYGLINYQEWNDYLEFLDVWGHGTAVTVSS
Chain of PGT-143 (antibody) (VL): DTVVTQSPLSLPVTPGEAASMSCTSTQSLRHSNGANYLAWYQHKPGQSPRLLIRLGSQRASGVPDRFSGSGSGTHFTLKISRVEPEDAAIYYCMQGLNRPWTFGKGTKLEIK
Chain of PGT-141 (antibody) (VH): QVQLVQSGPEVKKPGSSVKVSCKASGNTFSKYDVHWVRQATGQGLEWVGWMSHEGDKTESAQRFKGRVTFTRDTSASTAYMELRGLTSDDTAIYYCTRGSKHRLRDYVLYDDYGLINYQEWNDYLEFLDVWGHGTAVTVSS

In the case of “5117_E22 (labelled PGT-133 in Table 26) (antibody)”, the Primary Neutralization Index (B cell culture supernatant) in assay [1] was determined as 3.6; in assay [2] it was 42.5; in assay [3] it was 3.4.
The corresponding values for “5113_D22 (labelled PGT-132 in Table 26) (antibody)” are 3, 51 and 6.
PGT-142 (antibody): the IC50 (µg/mL), pseudovirus neutralization in assay [4] was 0.792 µg/mL; in assay [5] it was 1.11 µg/mL; in assay [6], 0.03 µg/mL; in assay [7], 0.086 µg/mL; in assay [8] it was 6.02 µg/mL; in assay [9] it was 0.446 µg/mL. In addition, the IC50 (µg/mL), pseudovirus neutralization in assay [10] was 0.038 µg/mL; in assay [11] it was greater than 50 µg/mL; in assay [12], 0.087 µg/mL; in [13], 2.12 µg/mL; in assay [14], 0.003 µg/mL; in assay [15], 0.183 µg/mL.
For PGT-145 (antibody), the IC50 (µg/mL), pseudovirus neutralization in assay [4] was 0.095 µg/mL; in assay [5], greater than 50 µg/mL; in [6], 0.174 µg/mL; in [7] it was 0.492 µg/mL; in assay [8], 5.82 µg/mL; in [9], 0.712 µg/mL. For the same substance, the IC50 (µg/mL), pseudovirus neutralization in assay [10] is 0.12 µg/mL; in assay [11], greater than 50 µg/mL; in assay [12] it was 0.201 µg/mL; in assay [13], 0.099 µg/mL; in assay [14] it was 0.005 µg/mL; in assay [15] it was 0.044 µg/mL.
As to PGT-143 (antibody), the IC50 (µg/mL), pseudovirus neutralization in [4] came out at 0.598 µg/mL; in [5], 5.17 µg/mL; in [6], 0.05 µg/mL; in assay [7], 0.103 µg/mL; in [8], 8.81 µg/mL; in [9], 0.797 µg/mL. For the same substance, the IC50 (µg/mL), pseudovirus neutralization was 0.085 µg/mL in [10]; greater than 50 µg/mL in assay [11]; 0.148 µg/mL in assay [12]; 12.4 µg/mL in assay [13]; 0.004 µg/mL in assay [14]; 0.336 µg/mL in assay [15].
Turning to PGT-144 (4970_K22) (antibody), the IC50 in assay [16] was greater than 50 µg/mL; in [17], greater than 50 µg/mL; in assay [19] it was greater than 50 µg/mL; in assay [21], 1.16 µg/mL; in [23], greater than 50 µg/mL; in assay [24], 0.507 µg/mL. For the same substance, the IC50 in assay [25] is greater than 50 µg/mL; in [26], greater than 50 µg/mL; in assay [27], greater than 50 µg/mL; in assay [28] it was 0.105 µg/mL; in assay [30], 0.014 µg/mL; in [31] it was greater than 50 µg/mL. Also, the concentration for half-maximal inhibition (IC50) was greater than 50 µg/mL in assay [34]; greater than 50 µg/mL in [35]; greater than 50 µg/mL in assay [36]; greater than 50 µg/mL in assay [37]; 8.93 µg/mL in [40]; 0.459 µg/mL in [43]. Moreover, the IC50 in assay [44] is 20.6 µg/mL; in assay [45] it was 0.113 µg/mL; in [47] it was greater than 50 µg/mL; in assay [48], greater than 50 µg/mL; in assay [49], greater than 50 µg/mL; in [50] it was 0.509 µg/mL. For the same substance, the IC50 in [52] is greater than 50 µg/mL; in assay [53], 0.382 µg/mL; in [54], greater than 50 µg/mL; in [55] it was greater than 50 µg/mL; in assay [56], greater than 50 µg/mL. Besides, the IC50, pseudovirus neutralization in assay [18] was 7.78 µg/mL; in assay [20] it was greater than 50 µg/mL; in assay [22], greater than 50 µg/mL; in assay [29], greater than 50 µg/mL; in [32], 3.55 µg/mL; in assay [33], greater than 50 µg/mL. For the same substance, the IC50, pseudovirus neutralization was greater than 50 µg/mL in [38]; greater than 50 µg/mL in assay [39]; greater than 50 µg/mL in [41]; greater than 50 µg/mL in [42]; greater than 50 µg/mL in assay [46]; 44.6 µg/mL in assay [51].
Turning to PGT-144 (antibody), the IC50 (µg/mL), pseudovirus neutralization was greater than 50 µg/mL in assay [4]; 23 µg/mL in assay [5]; 2.06 µg/mL in assay [6]; 2.58 µg/mL in [7]; greater than 50 µg/mL in [8]; 1.29 µg/mL in [9]. Besides, the IC50 (µg/mL), pseudovirus neutralization is 0.236 µg/mL in assay [10]; greater than 50 µg/mL in [11]; 0.38 µg/mL in assay [12]; greater than 50 µg/mL in assay [13]; 0.513 µg/mL in assay [14]; 17.6 µg/mL in assay [15].
Regarding PGT-141 (antibody), the IC50 (µg/mL), pseudovirus neutralization in assay [4] turned out to be 3.27 µg/mL; in assay [5] it was 4.02 µg/mL; in [6] it was 0.101 µg/mL; in [7] it was 0.381 µg/mL; in [8], 11.8 µg/mL; in assay [9], 1.34 µg/mL. The IC50 (µg/mL), pseudovirus neutralization in [10] is 0.033 µg/mL; in assay [11], greater than 50 µg/mL; in [12], 0.153 µg/mL; in [13] it was 13.8 µg/mL; in assay [14], 0.008 µg/mL; in assay [15] it was 0.247 µg/mL.
